Data from publication PMC7948726.

Target: 14-3-3β (UniProt P31946)
Assay: anti-FLAG co-IP, anti-HA blot
Conditions: reference: FLAG-DYRK1A wild type; sites S529

binding against the reference: weaker
Substance: DYRK1A (from UniProt Q63470) FLAG-DYRK1A-S529A
